Test results reported in the supplement of paper PMC9876800.

System: peptide library, one residue held at a place counted from the S/T acceptor
Test: relative phosphorylation of the sub-library (ratio to the mean residue at this position); higher = residue favoured
Conditions: human
Outline: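 Human or orthologue kinase constructs, purified and recombinant, were incubated under kinase-specific conditions in 384-well plates with biotinylated degenerate peptide sub-libraries. Each sub-library fixed one residue at one position around a central Ser/Thr. Incubations lasted 90 min with peptides at 50 μM and 50 μM ATP spiked with γ-32P-ATP, after which spots on streptavidin membranes were phosphorimaged and quantified by densitometry. Relative sub-library phosphorylation is a ratio to the mean residue at that position.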

RPS6KA3, construct: Full length, sequence (P51812 whole entry, looked up): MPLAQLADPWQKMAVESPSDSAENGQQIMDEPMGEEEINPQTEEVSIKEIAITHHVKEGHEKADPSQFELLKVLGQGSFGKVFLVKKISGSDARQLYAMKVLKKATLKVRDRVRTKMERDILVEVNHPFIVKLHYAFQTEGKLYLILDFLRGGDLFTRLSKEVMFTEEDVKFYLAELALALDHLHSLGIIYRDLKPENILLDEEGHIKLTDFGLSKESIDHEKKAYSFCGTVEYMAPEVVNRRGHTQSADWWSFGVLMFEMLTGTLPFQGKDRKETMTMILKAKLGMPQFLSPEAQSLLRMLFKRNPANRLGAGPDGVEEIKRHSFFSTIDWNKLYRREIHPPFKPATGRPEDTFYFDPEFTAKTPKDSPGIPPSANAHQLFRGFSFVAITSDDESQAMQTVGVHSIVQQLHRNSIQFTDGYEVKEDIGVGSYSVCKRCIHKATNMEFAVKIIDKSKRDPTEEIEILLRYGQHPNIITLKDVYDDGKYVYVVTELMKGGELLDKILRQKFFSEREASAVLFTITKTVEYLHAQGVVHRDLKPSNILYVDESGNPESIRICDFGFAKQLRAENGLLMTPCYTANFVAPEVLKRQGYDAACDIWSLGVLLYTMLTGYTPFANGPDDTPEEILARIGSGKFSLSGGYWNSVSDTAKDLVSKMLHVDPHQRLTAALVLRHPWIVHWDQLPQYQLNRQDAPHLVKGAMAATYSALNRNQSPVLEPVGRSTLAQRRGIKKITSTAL
ROCK2, construct: aa5-554, sequence (O75116 5-554, looked up): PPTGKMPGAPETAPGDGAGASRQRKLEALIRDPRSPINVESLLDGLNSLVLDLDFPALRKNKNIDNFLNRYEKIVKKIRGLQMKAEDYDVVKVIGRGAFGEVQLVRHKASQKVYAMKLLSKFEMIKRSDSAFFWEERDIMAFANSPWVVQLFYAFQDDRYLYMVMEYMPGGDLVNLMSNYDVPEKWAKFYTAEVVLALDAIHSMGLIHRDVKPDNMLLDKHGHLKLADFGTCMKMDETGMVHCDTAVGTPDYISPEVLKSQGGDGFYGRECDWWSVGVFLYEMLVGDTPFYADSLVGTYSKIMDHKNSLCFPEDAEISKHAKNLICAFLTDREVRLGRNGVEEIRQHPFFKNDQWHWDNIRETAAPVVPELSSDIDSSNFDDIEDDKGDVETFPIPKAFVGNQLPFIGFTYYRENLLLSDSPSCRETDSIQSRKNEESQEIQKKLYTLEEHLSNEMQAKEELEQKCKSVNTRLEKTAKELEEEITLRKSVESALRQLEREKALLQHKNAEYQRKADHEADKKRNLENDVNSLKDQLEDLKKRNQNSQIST
STK24, construct: Full length, sequence (Q9Y6E0 whole entry, looked up): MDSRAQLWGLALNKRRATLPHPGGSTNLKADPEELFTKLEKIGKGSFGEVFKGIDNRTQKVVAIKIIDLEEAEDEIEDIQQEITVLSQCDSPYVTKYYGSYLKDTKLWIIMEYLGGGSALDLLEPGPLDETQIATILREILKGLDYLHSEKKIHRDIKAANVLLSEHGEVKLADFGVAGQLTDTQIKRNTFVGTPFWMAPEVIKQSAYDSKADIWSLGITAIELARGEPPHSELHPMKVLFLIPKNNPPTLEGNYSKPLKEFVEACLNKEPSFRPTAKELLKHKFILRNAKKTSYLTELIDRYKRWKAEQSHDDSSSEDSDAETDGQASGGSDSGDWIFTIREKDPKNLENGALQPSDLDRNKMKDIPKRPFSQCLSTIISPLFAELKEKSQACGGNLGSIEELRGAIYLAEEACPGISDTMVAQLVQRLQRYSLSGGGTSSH

ROCK2, construct: aa5-554 (from UniProt O75116)
relative phosphorylation
Conditions	at +1	at +2	at +3	at +4	at -1	at -2	at -3	at -4	at -5
A fixed	0.695	1.01	0.926	0.921	0.75	0.607	0.647	0.938	1
D fixed	0.471	0.48	0.757	0.745	0.406	0.263	0.297	0.58	0.562
E fixed	0.455	0.51	0.614	0.751	0.301	0.251	0.28	0.613	0.471
F fixed	0.69	0.707	0.962	1.1	0.559	0.474	0.341	0.622	0.679
G fixed	0.957	0.876	1.73	1.31	1.08	0.706	0.724	1.22	1.19
H fixed	0.984	1.16	1.25	1.1	1.16	1.42	1.59	1.13	1.25
I fixed	1.49	1.29	0.948	0.984	0.482	0.3	0.281	0.516	0.692
K fixed	1.19	1.44	0.998	1.2	2.77	2.71	2.57	2.3	2.45
L fixed	1.48	1.08	0.952	0.886	0.912	0.391	0.304	0.504	0.494
M fixed	1.52	0.743	0.876	0.929	0.792	0.446	0.361	0.707	0.571
N fixed	1.43	0.734	0.931	1.04	1.15	0.937	0.637	0.836	0.779
P fixed	0.266	0.935	1.28	1.29	1.28	0.665	0.785	1.19	1.04
Q fixed	1.51	0.75	0.835	0.946	1.09	0.801	0.651	0.904	0.865
R fixed	1.77	1.81	0.97	1.07	2.2	5.27	6.24	2.89	2.83
V fixed	0.908	1.48	0.835	0.727	0.619	0.321	0.297	0.555	0.641
W fixed	0.616	0.922	1.08	1.09	0.528	0.762	0.53	0.822	0.736
Y fixed	0.564	1.07	1.06	0.914	0.929	0.681	0.461	0.673	0.758
pThr fixed	0.595	0.566	0.556	0.763	0.336	0.465	0.494	0.755	0.805
pTyr fixed	0.409	0.592	0.736	0.663	0.386	0.338	0.435	0.489	0.705

RPS6KA3, construct: Full length (from UniProt P51812)
relative phosphorylation
Conditions	at +1	at +2	at +3	at +4	at -1	at -2	at -3	at -4	at -5
A fixed	0.876	1.48	0.988	1.03	0.917	0.555	0.652	1.08	0.961
D fixed	0.617	1.08	1.48	1.39	0.636	0.658	0.452	0.62	0.501
E fixed	0.97	0.833	1.58	1.24	0.466	0.617	0.402	0.76	0.4
F fixed	0.848	0.548	0.78	0.679	0.709	0.568	0.327	0.682	0.703
G fixed	0.704	1.17	1.21	1.17	1.13	0.85	0.555	1.15	1.01
H fixed	1.16	1.34	1.14	0.914	1.01	0.979	0.566	0.911	0.892
I fixed	1.2	0.77	0.666	0.826	0.652	0.615	0.373	0.834	0.762
K fixed	1.16	1.08	0.972	1.17	1.49	2.6	1.7	1.8	2.04
L fixed	0.927	0.732	0.905	0.652	0.906	0.976	0.37	0.811	0.944
M fixed	1.1	0.727	0.722	0.828	0.933	0.614	0.291	0.99	0.736
N fixed	0.957	0.985	0.827	0.902	1.02	0.708	0.464	0.855	0.719
P fixed	0.432	0.677	0.997	1.6	2.36	0.457	0.785	0.863	0.951
Q fixed	1.22	0.716	0.808	0.895	0.935	0.962	0.641	1.01	0.836
R fixed	1.34	1.59	1.11	1.26	1.39	4.29	8.12	2.46	3.13
V fixed	1.45	1.07	0.839	0.941	0.752	0.591	0.393	0.698	0.852
W fixed	0.887	0.858	0.998	0.738	0.628	0.361	0.408	0.725	0.807
Y fixed	1.15	1.34	0.979	0.762	1.06	0.601	0.498	0.753	0.748
pThr fixed	1.89	1.03	1.64	2.38	0.318	0.319	0.343	0.719	0.648
pTyr fixed	1.7	1.14	2.08	1.47	0.543	0.3	0.306	0.448	0.668

SRPK1, construct: Full length (from UniProt Q96SB4)
relative phosphorylation
Conditions	at +1	at +2	at +3	at +4	at -1	at -2	at -3	at -4	at -5
A fixed	0.85	1.23	0.682	1.04	1.12	1.65	0.811	1.21	1.51
D fixed	0.273	1.46	0.499	1.13	0.486	1.63	0.506	0.682	0.77
E fixed	0.377	1.33	0.412	0.886	0.589	0.981	0.363	0.734	0.686
F fixed	0.387	0.626	0.424	0.741	0.476	0.637	0.297	0.713	1
G fixed	0.942	1.03	0.911	1.12	0.959	1.34	0.634	1.14	1.28
H fixed	0.563	1.61	0.697	0.988	1.2	1.72	0.454	0.956	0.954
I fixed	0.607	0.588	0.46	0.823	0.554	0.51	0.372	0.736	0.796
K fixed	1.55	1.14	1.43	1.47	2.19	1.34	1.02	1.61	1.58
L fixed	0.698	0.623	0.46	0.781	0.741	0.429	0.326	0.725	0.788
M fixed	0.62	0.715	0.499	0.773	0.723	0.5	0.302	0.823	0.892
N fixed	0.613	1.15	0.796	1.05	1.02	1.19	0.433	0.962	0.867
P fixed	4.75	1.34	1.69	1.36	1.9	1.03	0.6	1.38	1.01
Q fixed	0.932	0.981	0.699	1.1	1.16	0.692	0.596	0.87	0.675
R fixed	2.33	1.27	5.99	1.4	2.17	1.6	9.31	2.29	1.45
V fixed	0.722	0.715	0.458	0.705	0.698	0.54	0.343	0.66	0.879
W fixed	0.417	0.582	0.452	0.886	0.42	0.616	0.312	0.735	1.04
Y fixed	0.378	0.607	0.439	0.745	0.572	0.594	0.322	0.771	0.829
pThr fixed	0.489	1.26	0.585	1.19	0.548	0.681	0.51	0.772	0.765
pTyr fixed	0.462	0.95	0.653	1.06	0.753	1.39	0.694	1.43	0.947

STK24, construct: Full length (from UniProt Q9Y6E0)
relative phosphorylation
Conditions	at +1	at +2	at +3	at +4	at -1	at -2	at -3	at -4	at -5
A fixed	0.627	0.917	0.954	0.963	1.01	0.99	1.02	1.14	1.34
D fixed	0.166	0.344	0.465	0.516	0.762	0.388	0.58	0.738	0.689
E fixed	0.175	0.268	0.443	0.499	0.483	0.344	0.586	0.869	0.689
F fixed	1.29	0.471	0.999	0.679	0.781	1.19	0.855	0.867	0.873
G fixed	0.498	1.11	1.15	0.979	1.88	1.34	1.48	1.34	1.2
H fixed	0.946	1.11	1.17	1.03	1.12	1.44	1.05	1.08	1.07
I fixed	1.77	0.493	0.827	0.727	0.43	0.782	0.675	0.743	0.713
K fixed	0.827	3.1	2.09	2.43	1.57	1.41	1.84	1.51	1.87
L fixed	1.76	0.472	1.01	0.716	0.98	0.635	0.737	0.75	0.719
M fixed	1.61	0.6	0.843	0.846	0.897	0.702	0.738	0.81	0.68
N fixed	0.547	0.871	0.812	0.998	1.27	1.05	1.06	0.97	0.902
P fixed	0.401	0.807	0.802	0.952	0.751	0.765	0.959	0.94	1.2
Q fixed	0.673	0.789	0.822	0.936	0.945	0.91	0.935	1.01	0.926
R fixed	0.919	3.78	1.79	2.24	1.79	1.44	1.71	1.5	1.5
V fixed	1.47	0.615	0.828	0.693	0.546	0.83	0.71	0.772	0.851
W fixed	2.07	0.626	1.04	1.04	0.809	1.15	1.05	1.01	0.906
Y fixed	1.25	0.618	0.968	0.76	0.981	1.64	1.01	0.951	0.868
pThr fixed	1.19	1.05	0.892	0.801	0.865	1.28	1.61	1.33	1.43
pTyr fixed	0.488	0.389	0.748	0.55	1.1	0.833	1.15	0.836	1.16
